Experimental data from article PMC7615804, “Molecular mechanism of dynein-dynactin complex assembly by LIS1” (Science (New York, N.Y.), 2024).
Blank lines part the entries; values can stand above or below the binder they belong to.

B6: GST-Psc-DCTN1(residues 350-547)-GFP-6xHis (domain or fragment, human (from the printed UniProt entry), UniProt Q14203-1 350-547, looked up)
chain: GSDGAASSYQLKQLEEQNARLKDALVRMRDLSSSEKQEHVKLQKLMEKKNQELEVVRQQRERLQEELSQAESTIDELKEQVDAALGAEEMVEMLTDRNLNLEEKVRELRETVGDLEAMNEMNDELQENARETELELREQLDMAGARVREAQKRVEAAQETVADYQQTIKKYRQLTAHLQDVNRELTNQQEASVERQQQ
notes: DCTN1/p150glued, UniProt Q14203-1, residues 350-547 (CC1B fragment); also called CC1B; p150-CC1B; source: SoluBL21 E. coli, purified (Ni-NTA, glutathione resin, SEC)

Assays:
[1] = target: B6; experiment: pull-down; GST pull-down on glutathione resin with GST-CC1A/B or CC1B as bait; LIS1, LIS1-N or MBP-DIC-N as prey; GST-PD buffer (50 mM HEPES pH 7.5, 100 mM KCl, 1 mM MgCl2, 1 mM DTT), room temperature; Coomassie-stained SDS-PAGE; settings: both partners purified
[2] = target: the molecule itself; experiment: SEC-MALS; 70 μL at 1 mg/mL, GF150 buffer, Superdex 200 5/150
[3] = target: T1, mouse JIP3^185-505 (JIP3 residues 186-505) (mouse, UniProt Q9ESN9-5 186-505); experiment: pull-down; pull-downs with mouse JIP3 186-505 constructs, Arf6 and the recombinant pointed end complex (Fig. S3E); purified recombinant proteins; which protein was held on the resin is not told in the text shown; settings: both partners purified
T1 construct: 2CT vector; also called JIP3 fragment containing the Spindly motif and LZII; JIP3 186-505; source: SoluBL21 E. coli, purified (Ni-NTA, TEV, Strep-Tactin, SEC); not shown: His6, N-terminal, cleaved; MBP, N-terminal, cleaved
T1 sequence (looked up): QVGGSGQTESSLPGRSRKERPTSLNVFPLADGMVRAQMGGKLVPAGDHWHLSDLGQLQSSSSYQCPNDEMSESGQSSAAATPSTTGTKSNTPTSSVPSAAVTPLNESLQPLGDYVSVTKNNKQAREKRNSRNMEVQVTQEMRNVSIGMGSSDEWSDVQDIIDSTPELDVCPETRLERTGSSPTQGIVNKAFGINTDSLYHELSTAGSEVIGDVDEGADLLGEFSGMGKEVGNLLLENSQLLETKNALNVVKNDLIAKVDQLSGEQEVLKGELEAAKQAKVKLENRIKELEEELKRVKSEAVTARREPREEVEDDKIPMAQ

[4] = target: T2, mouse JIP3 186-505_L383A/E386A (mouse, UniProt Q9ESN9-5 186-505, L383A | E386A); experiment: as above; settings: both partners purified
T2 construct: JIP3, mouse cDNA, isoform 3a, UniProt Q9ESN9-5, residues 186-505 with L383A and E386A; also called Spindly motif mutant (L383A/E386A); source: SoluBL21 E. coli, purified (Ni-NTA, TEV, Strep-Tactin, SEC); not shown: His6, N-terminal, cleaved; MBP, N-terminal, cleaved
T2 sequence (looked up): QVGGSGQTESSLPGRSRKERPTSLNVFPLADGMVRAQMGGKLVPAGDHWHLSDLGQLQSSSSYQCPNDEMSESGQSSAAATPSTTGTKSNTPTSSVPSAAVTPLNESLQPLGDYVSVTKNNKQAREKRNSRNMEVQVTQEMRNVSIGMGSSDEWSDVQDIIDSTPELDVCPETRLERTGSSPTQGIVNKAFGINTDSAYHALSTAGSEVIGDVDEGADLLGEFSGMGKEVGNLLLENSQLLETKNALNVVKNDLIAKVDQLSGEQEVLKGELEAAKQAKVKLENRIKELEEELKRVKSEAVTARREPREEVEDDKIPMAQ

[5] = target: T3, GST-Psc-DCTN1(residues 214-547)-GFP-6xHis (human (from the printed UniProt entry), UniProt Q14203-1 214-547); experiment: pull-down; GST pull-down on glutathione resin with GST-CC1A/B or CC1B as bait; LIS1, LIS1-N or MBP-DIC-N as prey; GST-PD buffer (50 mM HEPES pH 7.5, 100 mM KCl, 1 mM MgCl2, 1 mM DTT), room temperature; Coomassie-stained SDS-PAGE; settings: both partners purified
T3 construct: DCTN1/p150glued, UniProt Q14203-1, residues 214-547 (CC1 fragment: CC1A and CC1B); also called GST-CC1A/B; CC1A/B; source: SoluBL21 E. coli, purified (Ni-NTA, glutathione resin, SEC); not shown: GST, N-terminal, kept

LIS1 (full length human) = target: T4, LIS1 (full length human) (human, UniProt P43034 1-410); experiment: as above; settings: both partners purified
T4 construct: LIS1, human, full length, UniProt P43034 (printed for the AlphaFold2 prediction); A version with an additional C-terminal SNAPf tag also exists; also called wild-type LIS1; source: Sf9, purified (IgG Sepharose, TEV, SEC); not shown: ZZ, N-terminal, cleaved
T4 sequence (looked up): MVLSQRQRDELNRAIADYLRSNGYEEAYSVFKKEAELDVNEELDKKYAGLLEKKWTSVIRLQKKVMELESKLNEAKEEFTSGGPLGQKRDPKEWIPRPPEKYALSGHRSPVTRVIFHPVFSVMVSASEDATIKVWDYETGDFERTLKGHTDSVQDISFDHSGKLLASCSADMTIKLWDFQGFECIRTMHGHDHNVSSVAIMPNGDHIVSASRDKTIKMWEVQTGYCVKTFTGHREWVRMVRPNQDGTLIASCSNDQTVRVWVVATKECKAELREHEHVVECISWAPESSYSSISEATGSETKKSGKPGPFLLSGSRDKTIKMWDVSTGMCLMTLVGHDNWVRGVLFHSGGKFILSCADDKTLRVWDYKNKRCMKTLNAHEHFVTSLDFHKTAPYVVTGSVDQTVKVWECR

[6] = target: T5, dynactin pointed end complex (ZZ-TEV-Arp11, p62, p25, p27) (human, UniProt Q9NZ32 1-417; Q9UJW0-1 1-460; Q9BTE1 1-182; O00399 1-190); experiment: SEC; pointed end complex and JIP3^1-560 (or its Spindly mutant) mixed 1:1 at 10 μM final in GF150 buffer, 30 min at 4°C, Superose 6 Increase 3.2/300; settings: both partners purified
T5 construct: Arp11, human, subunit of the dynactin pointed end complex; p62, human, isoform A, UniProt Q9UJW0-1; p25, human, subunit of the dynactin pointed end complex; p27, human, subunit of the dynactin pointed end complex; source: pAceBac1 vector; copies: + + +
T5 sequence (Q9NZ32 whole entry, chain 1 of 4, canonical isoform): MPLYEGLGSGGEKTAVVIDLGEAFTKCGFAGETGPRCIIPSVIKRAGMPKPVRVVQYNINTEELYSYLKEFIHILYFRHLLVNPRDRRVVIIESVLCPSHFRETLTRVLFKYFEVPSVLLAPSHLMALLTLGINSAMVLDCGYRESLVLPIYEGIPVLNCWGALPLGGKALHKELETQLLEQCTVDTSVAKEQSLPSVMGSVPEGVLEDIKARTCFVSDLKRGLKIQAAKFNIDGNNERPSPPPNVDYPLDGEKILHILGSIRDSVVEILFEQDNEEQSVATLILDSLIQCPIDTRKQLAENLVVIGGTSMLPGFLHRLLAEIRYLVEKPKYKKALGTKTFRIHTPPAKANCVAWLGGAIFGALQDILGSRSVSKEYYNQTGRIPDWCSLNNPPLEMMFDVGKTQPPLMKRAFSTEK
T5 sequence (Q9UJW0 whole entry, chain 2 of 4, canonical isoform): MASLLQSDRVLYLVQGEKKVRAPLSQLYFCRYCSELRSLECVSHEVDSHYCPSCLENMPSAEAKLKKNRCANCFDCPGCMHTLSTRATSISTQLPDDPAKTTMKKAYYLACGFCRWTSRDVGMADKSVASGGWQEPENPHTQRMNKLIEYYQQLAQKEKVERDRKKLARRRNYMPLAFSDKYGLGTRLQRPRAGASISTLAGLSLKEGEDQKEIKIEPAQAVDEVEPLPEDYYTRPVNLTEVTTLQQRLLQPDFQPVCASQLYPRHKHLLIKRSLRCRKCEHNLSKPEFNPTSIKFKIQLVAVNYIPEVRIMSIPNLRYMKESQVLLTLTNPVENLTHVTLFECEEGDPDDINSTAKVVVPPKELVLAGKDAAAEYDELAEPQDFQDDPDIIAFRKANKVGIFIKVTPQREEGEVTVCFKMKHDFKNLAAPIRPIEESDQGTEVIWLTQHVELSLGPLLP
T5 sequence (Q9BTE1 whole entry, chain 3 of 4, canonical isoform): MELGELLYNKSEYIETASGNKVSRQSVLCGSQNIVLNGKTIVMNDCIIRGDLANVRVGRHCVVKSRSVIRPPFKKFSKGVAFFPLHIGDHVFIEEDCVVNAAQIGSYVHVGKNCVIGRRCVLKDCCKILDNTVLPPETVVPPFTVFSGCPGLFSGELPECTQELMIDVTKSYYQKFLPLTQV
T5 sequence (O00399 whole entry, chain 4 of 4, canonical isoform): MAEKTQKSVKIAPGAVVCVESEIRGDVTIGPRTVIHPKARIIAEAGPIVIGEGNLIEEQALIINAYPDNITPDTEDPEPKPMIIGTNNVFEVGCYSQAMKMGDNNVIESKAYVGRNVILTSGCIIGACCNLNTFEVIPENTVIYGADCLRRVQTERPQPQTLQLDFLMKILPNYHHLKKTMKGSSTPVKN

binding result [3]: binds
binding result [4]: binds
B3: human Arf6 (12-175_Q67L) (domain or fragment, UniProt P62330 12-175, looked up)
chain: KEMRILMLGLDAAGKTTILYKLKLGQSVTTIPTVGFNVETVTYKNVKFNVWDVGGLDKIRPLWRHYYTGTQGLIFVVDCADRDRIDEARQELHRIINDREMRDAIILIFANKQDLPDAMKPHEIQEKLGLTRIRDRNWYVQPSCATSGDGLYEGLTWLTSNYKS
notes: Arf6, human, residues 12-175 with Q67L; pGEX-6P-1 vector: N-terminal GST, Prescission site, C-terminal 6xHis; source: SoluBL21 E. coli, purified (Ni-NTA, glutathione resin, SEC)

binding result [5]: binds
B4: MBP-DIC-N (dynein intermediate chain 1-76) (domain or fragment, human, UniProt Q13409 1-76, looked up)
chain: MSDKSELKAELERKKQRLAQIREEKKRKEEERKKKETDQKKEAVAPVQEESDLEKKRREAEALLQSMGLTPESPIV
notes: dynein intermediate chain, residues 1-76; UniProt Q13409 is printed for DIC in the AlphaFold2 predictions; 2CT vector; the general protocol includes a TEV step, but this construct is named and used as MBP-DIC-N on amylose resin; also called DIC-N construct; source: SoluBL21 E. coli, purified; not shown: MBP, N-terminal, kept

binding result [6]: binds
B7: JIP3^1-560 (domain or fragment, human, UniProt Q9UPT6-1 1-560, looked up)
chain: MMEIQMDEGGGVVVYQDDYCSGSVMSERVSGLAGSIYREFERLIHCYDEEVVKELMPLVVNVLENLDSVLSENQEHEVELELLREDNEQLLTQYEREKALRRQAEEKFIEFEDALEQEKKELQIQVEHYEFQTRQLELKAKNYADQISRLEERESEMKKEYNALHQRHTEMIQTYVEHIERSKMQQVGGNSQTESSLPGRRKERPTSLNVFPLADGTVRAQIGGKLVPAGDHWHLSDLGQLQSSSSYQCPQDEMSESGQSSAAATPSTTGTKSNTPTSSVPSAAVTPLNESLQPLGDYGVGSKNSKRAREKRDSRNMEVQVTQEMRNVSIGMGSSDEWSDVQDIIDSTPELDMCPETRLDRTGSSPTQGIVNKAFGINTDSLYHELSTAGSEVIGDVDEGADLLGEFSVRDDFFGMGKEVGNLLLENSQLLETKNALNVVKNDLIAKVDQLSGEQEVLRGELEAAKQAKVKLENRIKELEEELKRVKSEAIIARREPKEEAEDVSSYLCTESDKIPMAQRRRFTRVEMARVLMERNQYKERLMELQEAVRWTEMIRASRE
notes: JIP3, human, UniProt Q9UPT6-1, residues 1-560, codon optimised for Sf9; The bacterial 2CT version would carry a C-terminal Strep-tag II; source: Sf9, purified (IgG Sepharose, TEV, SEC); not shown: His6, N-terminal, cleaved; ZZ, N-terminal, cleaved

Second part, the binder before the results:

B1: LIS1-N (residues 1-90) (domain or fragment, human, UniProt P43034 1-90, looked up)
chain: MVLSQRQRDELNRAIADYLRSNGYEEAYSVFKKEAELDVNEELDKKYAGLLEKKWTSVIRLQKKVMELESKLNEAKEEFTSGGPLGQKRD
notes: LIS1, human, residues 1-90 (LisH domain and coiled coil); source: Sf9, purified (IgG Sepharose, TEV, SEC); not shown: ZZ, N-terminal, cleaved
binding result [1]: binds

B2: LIS1^mut (natural protein, human, UniProt P43034 1-410, looked up)
chain: MVASQEARDELNRAIADYLRSNGYEEAYSVFKKEAELDVNEELDKEYAGLLEEEWAAVAELAEEVMELRSKLNEAKEEFTSGGPLGQKRDPKEWIPRPPEKYALSGHRSPVTRVIFHPVFSVMVSASEDATIKVWDYETGDFERTLKGHTDSVQDISFDHSGKLLASCSADMTIKLWDFQGFECIRTMHGHDHNVSSVAIMPNGDHIVSASRDKTIKMWEVQTGYCVKTFTGHREWVRMVRPNQDGTLIASCSNDQTVRVWVVATKECKAELREHEHVVECISWAPESSYSSISEATGSETKKSGKPGPFLLSGSRDKTIKMWDVSTGMCLMTLVGHDNWVRGVLFHSGGKFILSCADDKTLRVWDYKNKRCMKTLNAHEHFVTSLDFHKTAPYVVTGSVDQTVKVWECR
notes: The last substitution is printed as E6 9R and read as E69R; source: Sf9, purified (IgG Sepharose, TEV, SEC); not shown: ZZ, N-terminal, cleaved
stoichiometry N [2]: 2

B5: GCN4-WD40-SNAP (other, human)
chain: GSGSVKQLEDKVEELLSKNAHLENEVARLKKLVSGGPLGQKRDPKEWIPRPPEKYALSGHRSPVTRVIFHPVFSVMVSASEDATIKVWDYETGDFERTLKGHTDSVQDISFDHSGKLLASCSADMTIKLWDFQGFECIRTMHGHDHNVSSVAIMPNGDHIVSASRDKTIKMWEVQTGYCVKTFTGHREWVRMVRPNQDGTLIASCSNDQTVRVWVVATKECKAELREHEHVVECISWAPESSYSSISEATGSETKKSGKPGPFLLSGSRDKTIKMWDVSTGMCLMTLVGHDNWVRGVLFHSGGKFILSCADDKTLRVWDYKNKRCMKTLNAHEHFVTSLDFHKTAPYVVTGSVDQTVKVWECR
notes: LIS1, human, residues 81-410; source: Sf9, purified (IgG Sepharose, TEV, SEC); not shown: ZZ, N-terminal, cleaved; SNAPf, C-terminal, kept
stoichiometry N [2]: 2

Binder: B6
binding result (LIS1 (full length human)): binds
